# In US20220185898A1 (Alector, published 2022):
# What was measured:
# [1] = molecular target: T1, human Sortilin Fc fusion protein (human, UniProt Q99523 78-755); assay: ForteBio, avid;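 also: whole IgG captured on AHQ sensors, then contacted with Sortilin Fc fusion antigen at 100 nM, followed by an off-rate phase in buffer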
# T1 construct: whole entry named; also called hSort-Fc
# Procedure: (§1) The affinity for the Sortilin antibodies was determined by measuring their KD by ForteBio. […] Briefly, ForteBio affinity measurements were performed by loading IgGs on-line onto AHQ sensors. Sensors were equilibrated off-line in assay buffer for 30 min and then monitored on-line for 60 seconds for baseline establishment. For avid binding measurement, sensors with loaded IgGs were exposed to 100 nM antigen (human or mouse Sortilin Fc fusion) for 3, afterwards they were transferred to assay buffer for 3 min for off-rate measurement.
# (§2) The binding affinity of each anti-Sortilin antibody was determined by measuring their KD by ForteBio or MSD-SET at room temperature. […] Briefly, ForteBio affinity measurements were performed by loading IgGs on-line onto AHQ sensors. Sensors were equilibrated off-line in assay buffer for 30 min and then monitored on-line for 60 seconds for baseline establishment. Sensors with loaded IgGs were exposed to 100 nM antigen for 5 minutes, then transferred to assay buffer for 5 min for off-rate measurement. Kinetics were analyzed using the 1:1 binding model.
# [2] = molecular target: T2, mouse Sortilin Fc fusion protein (mouse; human, UniProt Q6PHU5 74-754); assay: ForteBio, avid;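 also: whole IgG captured on AHQ sensors, then contacted with Sortilin Fc fusion antigen at 100 nM, followed by an off-rate phase in buffer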
# T2 construct: whole entry named; also called mSort-Fc
# Procedure: as §1, §2
# [3] = molecular target: T3, human Sortilin expressed on 293 / HEK293T cells (human, UniProt Q99523 78-830); assay: FACS, 293 cells;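 also: antibodies at 10 µg/ml bound to cells for 1 h on ice, detected with PE-labelled anti-human secondary antibody by flow cytometry, reported as mean fluorescence intensity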
# T3 construct: full-length recombinant human Sortilin; also called hSort; SORT1
# Procedure: (§3) Cells were harvested, plated at 10⁵/ml in a 96 well plate, washed, and incubated in 100 μl PBS containing 10 μg/ml Mab and 2% FBS for 1 hour in ice. Cells were then washed twice and incubated in 100 μl PBS+2% FBS containing 5 μg/ml PE-conjugated anti-human secondary antibody for 30 minutes in ice. Cells were washed twice in cold PBS and data was acquired on a BD FACS Canto. Data analysis and calculation of MFI values was performed with FlowJo (TreeStar) software version 10.0.7.
# [4] = molecular target: T4, mouse Sortilin expressed on 293 / HEK293T cells (mouse, UniProt Q6PHU5 74-825); assay: FACS, 293 cells;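 also: antibodies at 10 µg/ml bound to cells for 1 h on ice, detected with PE-labelled anti-human secondary antibody by flow cytometry, reported as mean fluorescence intensity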
# T4 construct: full-length recombinant mouse Sortilin; also called mSort; msSort
# Procedure: as §3
# [5] = molecular target: T3, human Sortilin expressed on 293 / …; assay: FACS, HEK293T + hSort
# Procedure: (§4) Antibodies were diluted in FACS buffer (PBS+2% FBS+0.01% NaAzide). After incubation on ice for 1 h, cells were washed three times in FACS buffer and incubated with anti-human PE conjugated secondary antibody (BD Biosciences, 1:100 dilution) for 30 min on ice. Then cells were washed twice in 200 ul FACS buffer, and subsequently analyzed on a FACS Canto or iQE FACS screening instrument (Intellicyt Corp).
# [6] = molecular target: T4, mouse Sortilin expressed on 293 / …; assay: FACS, HEK293T + msSort
# Procedure: as §4
# [7] = molecular target: T5, biotinylated mouse Sortilin monomer (mouse, UniProt Q6PHU5 74-754, limits assumed, biotinylated); assay: MSD-SET, Fab
# T5 construct: also called Bt-msSort
# Procedure: Antibodies (20 nM in PBS) were coated onto standard bind MSD-ECL plates overnight at 4° C. or at room temperature for 30 min. Plates were then blocked with 1% BSA for 30 min with shaking at 700 rpm, followed by three washes with wash buffer (PB SF+0.05% Tween 20). SET samples were applied and incubated on the plates for 150 s with shaking at 700 rpm followed by one wash. Antigen captured on a plate was detected with 250 ng/ml sulfotag-labeled streptavidin in PBSF by incubation on the plate for 3 min. The plates were washed three times with wash buffer and then read on the MSD Sector Imager 2400 instrument using 1× Read Buffer T with surfactant. The percent free antigen was plotted as a function of titrated antibody in Prism and fit to a quadratic equation to extract the KD. To improve throughput, liquid handling robots were used throughout MSD-SET experiments, including SET sample preparation.
# [8] = molecular target: T5, biotinylated mouse Sortilin monomer; assay: ForteBio, Fab
# Procedure: The affinity of the anti-Sortilin antibodies was determined by measuring their KD by ForteBio and MSD. […] Briefly, ForteBio affinity measurements were performed by loading immunoglobulins (IgGs) on-line onto AHQ sensors. Sensors were equilibrated off-line in assay buffer for 30 min and then monitored on-line for 60 seconds for baseline establishment. For avid binding measurement, sensors with loaded IgGs were exposed to 100 nM antigen (human or mouse Sortilin Fc fusion) for 3 min, afterwards they were transferred to assay buffer for 3 min for off-rate measurement. […] Monovalent binding measurements were obtained by loading human or mouse Sortilin Fc fusion antigens to AHQ sensor and followed by exposure to −100 nM Sortilin antibody Fab. […] Kinetics data were fit using a 1:1 binding model in the data analysis software provided by ForteBio.
Binder,Kd [1],Kd [2],MFI [3],MFI [4],Kd [6],other results
"S-28 (antibody, V domains shown, IgG) VH: EVQLVESGGGLVKPGGSLRLSCAASGFTFSSYSMNWVRQAPGKGLEWVSSISSSSNYIYYADSVKGRFTISRDNAKNSLYLQMNSLRAEDTAVYYCARGGLDRWGSFDIWGQGTMVTVSS VL: not shown",0.299 nM,1.25 nM,8560,21600,,
"S-29 (antibody, V domains shown, IgG) VH: EVQLVESGGGLVKPGGSLRLSCAASGFTFSSYSMNWVRQAPGKGLEWVSSISSSSNYIYYADSVKGRFTISRDNAKNSLYLQMNSLRAEDTAVYYCARGGLDRWGSFDIWGQGTMVTVSS VL: not shown",0.37 nM,1.37 nM,9600,21800,,
"S-22-3 (antibody, V domains shown, IgG) VH: QVQLVQSGAEVKKPGSSVKVSCKASGGTFRSYAISWVRQAPGQGLEWMGGIIPGFGTAWYAQKFQGRVTITADESTSTAYMELSSLRSEDTAVYYCARQGRKTGYYYYYGMDVWGQGTTVTVSS VL: DIQMTQSPSTLSASVGDRVTITCRASQSISSWLAWYQQKPGKAPKLLIYKASSLESGVPSRFSGSGSGTEFTLTISSLQPDDFATYYCQQADGHITFGGGTKVEIK",,,,,3.63 nM,Kd [5]: 1.08 nM
"S-82-3 Fab (Fab, V domains shown, Fab by papain digestion) VH: QLQLQESGPGLVKPSETLSLTCTVSGGSISSSDYYWGWIRQPPGKGLEWIGQIYYKGSTYYNPSLKSRVTISVDTSKNQFSLKLSSVTAADTAVYYCARGVGSGYSYGYRYFDYWGQGTLVTVSS VL: EIVLTQSPGTLSLSPGERATLSCRASQSVSSSYLAWYQQKPGQAPRLLIYGASSRATGIPDRFSGSGSGTDFTLTISRLEPEDFAVYYCQQSHVSPWTFGGGTKVEIK",,,,,,binding result [7]: no binding
"S-82-5 Fab (Fab, V domains shown, Fab by papain digestion) VH: QLQLQESGPGLVKPSETLSLTCTVSGGSIKSSEYYWGWIRQPPGKGLEWIGSIYRAGSTYYNPSLKSRVTISVDTSKNQFSLKLSSVTAADTAVYYCARGVGSGYSYGYRYFDYWGQGTLVTVSS VL: EIVLTQSPGTLSLSPGERATLSCRASQSVSSSYLAWYQQKPGQAPRLLIYGASSRATGIPDRFSGSGSGTDFTLTISRLEPEDFAVYYCQQSHVSPWTFGGGTKVEIK",,,,,,binding result [7]: no binding
"S-82-5 (antibody, V domains shown, IgG) VH: QLQLQESGPGLVKPSETLSLTCTVSGGSIKSSEYYWGWIRQPPGKGLEWIGSIYRAGSTYYNPSLKSRVTISVDTSKNQFSLKLSSVTAADTAVYYCARGVGSGYSYGYRYFDYWGQGTLVTVSS VL: EIVLTQSPGTLSLSPGERATLSCRASQSVSSSYLAWYQQKPGQAPRLLIYGASSRATGIPDRFSGSGSGTDFTLTISRLEPEDFAVYYCQQSHVSPWTFGGGTKVEIK",,,,,,binding result [6]: no binding (tested: 0.39-50 nM antibody)
"S-82-3 (antibody, V domains shown, IgG) VH: QLQLQESGPGLVKPSETLSLTCTVSGGSISSSDYYWGWIRQPPGKGLEWIGQIYYKGSTYYNPSLKSRVTISVDTSKNQFSLKLSSVTAADTAVYYCARGVGSGYSYGYRYFDYWGQGTLVTVSS VL: EIVLTQSPGTLSLSPGERATLSCRASQSVSSSYLAWYQQKPGQAPRLLIYGASSRATGIPDRFSGSGSGTDFTLTISRLEPEDFAVYYCQQSHVSPWTFGGGTKVEIK",,,,,,binding result [6]: no binding (tested: 0.39-50 nM antibody)
"S-18 (antibody, V domains shown, IgG) VH: QVQLVQSGAEVKKPGSSVKVSCKASGGTFSSYAISWVRQAPGQGLEWMGSIIPIFGTANYAQKFQGRVTITADESTSTAYMELSSLRSEDTAVYYCARDKHGRRGYYYYMDVWGKGTTVTVSS VL: EIVLTQSPATLSLSPGERATLSCRASQSVSSYLAWYQQKPGQAPRLLIYDASNRATGIPARFSGSGSGTDFTLTISSLEPEDFAVYYCQQGANAPPRTFGGGTKVEIK",0.475 nM,2.3 nM,9350,21700,,
"S-15-3 (antibody, V domains shown, IgG) VH: QVQLVQSGAEVKKPGASVKVSCKASGYTFTSTYMSWVRQAPGQGLEWMGIINPYGGSTSYAQKFQGRVTMTRDTSTSTVYMELSSLRSEDTAVYYCARDPSGIAAAGPASRYYYGMDVWGQGTTVTVSS VL: EIVMTQSPATLSVSPGERATLSCRASQSVSSNLAWYQQKPGQAPRLLIYGASTRATGIPARFSGSGSGTEFTLTISSLQSEDFAVYYCQQARLGPWTFGGGTKVEIK",,,,,17.9 nM,Kd [5]: 5.25 nM
"S-48 (antibody, V domains shown, IgG) VH: QVQLVESGGGVVQPGRSLRLSCAASGFTFSSYGMHWVRQAPGKGLEWVAVISYDGSNKYYADSVKGRFTISRDNSKNTLYLQMNSLRAEDTAVYYCARESGDRATLVYYYYYGMDVWGQGTTVTVSS VL: EIVMTQSPATLSVSPGERATLSCRASQSVSSNLAWYQQKPGQAPRLLIYSASTRATGIPARFSGSGSGTEFTLTISSLQSEDFAVYYCQQYNSWPITFGGGTKVEIK",4.96 nM,1.53 nM,8140,11900,,
"S-15-6 (antibody, V domains shown, IgG) VH: QVQLVQSGAEVKKPGASVKVSCKASGYTFTSRYMSWVRQAPGQGLEWMGIINPVGGSTSYAQKFQGRVTMTRDTSTSTVYMELSSLRSEDTAVYYCARDPSGIAAAGPASRYYYGMDVWGQGTTVTVSS VL: EIVMTQSPATLSVSPGERATLSCRASQSVSSNLAWYQQKPGQAPRLLIYGASTRATGIPARFSGSGSGTEFTLTISSLQSEDFAVYYCQQARLGPWTFGGGTKVEIK",,,,,18.9 nM,
"S-15-6 Fab (Fab, V domains shown, Fab by papain digestion) VH: QVQLVQSGAEVKKPGASVKVSCKASGYTFTSRYMSWVRQAPGQGLEWMGIINPVGGSTSYAQKFQGRVTMTRDTSTSTVYMELSSLRSEDTAVYYCARDPSGIAAAGPASRYYYGMDVWGQGTTVTVSS VL: EIVMTQSPATLSVSPGERATLSCRASQSVSSNLAWYQQKPGQAPRLLIYGASTRATGIPARFSGSGSGTEFTLTISSLQSEDFAVYYCQQARLGPWTFGGGTKVEIK",,,,,,Kd [7]: 0.07 nM; Kd [8]: 0.678 nM
"S-15-14 (antibody, V domains shown, IgG) VH: QVQLVQSGAEVKKPGASVKVSCKASGYTFTSQYMSWVRQAPGQGLEWMGIINPYGGSTSYAQKFQGRVTMTRDTSTSTVYMELSSLRSEDTAVYYCARDPSGIAAAGPASRYYYGMDVWGQGTTVTVSS VL: EIVMTQSPATLSVSPGERATLSCRASQSVSSNLAWYQQKPGQAPRLLIYGASTRATGIPARFSGSGSGTEFTLTISSLQSEDFAVYYCQQARLGPWTFGGGTKVEIK",,,,,19.4 nM,Kd [5]: 5.25 nM
"S-2-1 (antibody, V domains shown, IgG) VH: QVQLVQSGAEVKKPGASVKVSCKASGYTFGAYYMHWVRQAPGQGLEWMGWINPNSGFTRYAQKFQGRVTMTRDTSISTAYMELSRLRSDDTAVYYCARGKRSSGWYEGYGMDVWGQGTTVTVSS VL: DIQMTQSPSSLSASVGDRVTITCRASQSISSYLNWYQQKPGKAPKLLIYAASSLQSGVPSRFSGSGSGTDFTLTISSLQPEDFATYYCQQSDVSPITFGGGTKVEIK",,,,,2.65 nM,Kd [5]: 0.691 nM
"S-19 (antibody, V domains shown, IgG) VH: QVQLVQSGAEVKKPGSSVKVSCKASGGTFSSYAISWVRQAPGQGLEWMGGIIPIFGTASYAQKFQGRVTITADESTSTAYMELSSLRSEDTAVYYCARESRIPGSGYYYYYGMDVWGQGTTVTVSS VL: DIQMTQSPSSLSASVGDRVTITCRASQSISSYLNWYQQKPGKAPKLLIYSASSLQSGVPSRFSGSGSGTDFTLTISSLQPEDFATYYCQQTDGKPPTFGGGTKVEIK",0.843 nM,0.733 nM,11700,28200,,
"S-21 (antibody, V domains shown, IgG) VH: QVQLVQSGAEVKKPGSSVKVSCKASGGTFSSYAISWVRQAPGQGLEWMGSIIPIFGTANYAQKFQGRVTITADESTSTAYMELSSLRSEDTAVYYCARERRYDGYYYYYGMDVWGQGTTVTVSS VL: DIQMTQSPSSLSASVGDRVTITCRASQSISSYLNWYQQKPGKAPKLLIYAASSLQSGVPSRFSGSGSGTDFTLTISSLQPEDFATYYCQQKASLPFTFGGGTKVEIK",1.87 nM,2.8 nM,9380,22900,,
"S-2-2 Fab (Fab, V domains shown, Fab by papain digestion) VH: QVQLVQSGAEVKKPGASVKVSCKASGYTFVAYYMHWVRQAPGQGLEWMGWINPNSGATRYAQKFQGRVTMTRDTSISTAYMELSRLRSDDTAVYYCARGKRSSGWYEGYGMDVWGQGTTVTVSS VL: DIQMTQSPSSLSASVGDRVTITCRASQSISSYLNWYQQKPGKAPKLLIYAASSLQSGVPSRFSGSGSGTDFTLTISSLQPEDFATYYCQQSDVSPITFGGGTKVEIK",,,,,,Kd [7]: 0.79 nM; Kd [8]: 2.68 nM
"S-2-2 (antibody, V domains shown, IgG) VH: QVQLVQSGAEVKKPGASVKVSCKASGYTFVAYYMHWVRQAPGQGLEWMGWINPNSGATRYAQKFQGRVTMTRDTSISTAYMELSRLRSDDTAVYYCARGKRSSGWYEGYGMDVWGQGTTVTVSS VL: DIQMTQSPSSLSASVGDRVTITCRASQSISSYLNWYQQKPGKAPKLLIYAASSLQSGVPSRFSGSGSGTDFTLTISSLQPEDFATYYCQQSDVSPITFGGGTKVEIK",,,,,2.27 nM,
"S-2-11 (antibody, V domains shown, IgG) VH: QVQLVQSGAEVKKPGASVKVSCKASGYTFLAYYMHWVRQAPGQGLEWMGWINPSWGSTSYAQKFQGRVTMTRDTSISTAYMELSRLRSDDTAVYYCARGKRSSGWYEGYGMDVWGQGTTVTVSS VL: DIQMTQSPSSLSASVGDRVTITCRASQSISSYLNWYQQKPGKAPKLLIYAASSLQSGVPSRFSGSGSGTDFTLTISSLQPEDFATYYCQQSDVSPITFGGGTKVEIK",,,,,1.54 nM,Kd [5]: 0.377 nM
